Measured values published in patent publication US20140271675A1 (Eli Lilly, published 2014).

How the values were obtained:
[1] = molecular target: hVEGFR1-Fc (R&D 321-fl 050/cf) (human) (UniProt P17948); experiment: competition ELISA, coated hVEGFR1-Fc, competitor biotin-hPLGF1 2 nM; control Ron antibody 16.667 µg/ml
[2] = molecular target: hVEGFR1-Fc (R&D 321-fl 050/cf) (human) (UniProt P17948); experiment: competition ELISA, coated hVEGFR1-Fc, competitor biotin-hPLGF1 2 nM; control Ron antibody 50.000 µg/ml
[3] = molecular target: hVEGFR1-Fc (R&D 321-fl 050/cf) (human) (UniProt P17948); experiment: competition ELISA, coated hVEGFR1-Fc, competitor biotin-hPLGF1 4 nM; control Ron antibody 0.0206 µg/ml
[4] = molecular target: hVEGFR1-Fc (R&D 321-fl 050/cf) (human) (UniProt P17948); experiment: competition ELISA, coated hVEGFR1-Fc, competitor biotin-hPLGF1 2 nM; control Ron antibody 0.617 µg/ml
[5] = molecular target: hVEGFR1-Fc (R&D 321-fl 050/cf) (human) (UniProt P17948); experiment: competition ELISA, coated hVEGFR1-Fc, competitor biotin-hVEGFA-165 2 nM; control Ron antibody 0.0069 µg/ml
[6] = molecular target: hVEGFR1-Fc (R&D 321-fl 050/cf) (human) (UniProt P17948); experiment: competition ELISA, coated hVEGFR1-Fc, competitor biotin-hPLGF1 4 nM; control Ron antibody 0.0023 µg/ml
[7] = molecular target: hVEGFR1-Fc (R&D 321-fl 050/cf) (human) (UniProt P17948); experiment: competition ELISA, coated hVEGFR1-Fc, competitor biotin-hPLGF1 4 nM; control Ron antibody 5.0000 µg/ml
[8] = molecular target: hVEGFR1-Fc (R&D 321-fl 050/cf) (human) (UniProt P17948); experiment: competition ELISA, coated hVEGFR1-Fc, competitor biotin-hVEGFA-165 2 nM; control Ron antibody 16.667 µg/ml
[9] = molecular target: hVEGFR1-Fc (R&D 321-fl 050/cf) (human) (UniProt P17948); experiment: competition ELISA, coated hVEGFR1-Fc, competitor biotin-hVEGFA-165 2 nM; control Ron antibody 0.617 µg/ml
[10] = molecular target: hVEGFR1-Fc (R&D 321-fl 050/cf) (human) (UniProt P17948); experiment: competition ELISA, coated hVEGFR1-Fc, competitor biotin-hVEGFA-165 2 nM; control Ron antibody 5.0000 µg/ml
[11] = molecular target: hVEGFR1-Fc (R&D 321-fl 050/cf) (human) (UniProt P17948); experiment: competition ELISA, coated hVEGFR1-Fc, competitor biotin-hVEGFA-165 2 nM; control Ron antibody 0.0617 µg/ml
[12] = molecular target: hVEGFR1-Fc (R&D 321-fl 050/cf) (human) (UniProt P17948); experiment: competition ELISA, coated hVEGFR1-Fc, competitor biotin-hVEGFA-165 2 nM; control Ron antibody 0.0206 µg/ml
[13] = molecular target: hVEGFR1-Fc (R&D 321-fl 050/cf) (human) (UniProt P17948); experiment: competition ELISA, coated hVEGFR1-Fc, competitor biotin-hVEGFA-165 2 nM; control Ron antibody 0.1852 µg/ml
[14] = molecular target: hVEGFR1-Fc (R&D 321-fl 050/cf) (human) (UniProt P17948); experiment: competition ELISA, coated hVEGFR1-Fc, competitor biotin-hVEGFA-165 2 nM; control Ron antibody 0.023 µg/ml
[15] = molecular target: hVEGFR1-Fc (R&D 321-fl 050/cf) (human) (UniProt P17948); experiment: competition ELISA, coated hVEGFR1-Fc, competitor biotin-hVEGFA-165 2 nM; control Ron antibody 0.206 µg/ml
[16] = molecular target: hVEGFR1-Fc (R&D 321-fl 050/cf) (human) (UniProt P17948); experiment: competition ELISA, coated hVEGFR1-Fc, competitor biotin-hVEGFA-165 2 nM; control Ron antibody 0.069 µg/ml
[17] = molecular target: hVEGFR1-Fc (R&D 321-fl 050/cf) (human) (UniProt P17948); experiment: competition ELISA, coated hVEGFR1-Fc, competitor biotin-hPLGF1 2 nM; control Ron antibody 0.023 µg/ml
[18] = molecular target: hVEGFR1-Fc (R&D 321-fl 050/cf) (human) (UniProt P17948); experiment: competition ELISA, coated hVEGFR1-Fc, competitor biotin-hVEGFA-165 2 nM; control Ron antibody 50.000 µg/ml
[19] = molecular target: hVEGFR1-Fc (R&D 321-fl 050/cf) (human) (UniProt P17948); experiment: competition ELISA, coated hVEGFR1-Fc, competitor biotin-hPLGF1 4 nM; control Ron antibody 0.0617 µg/ml
[20] = molecular target: hVEGFR1-Fc (R&D 321-fl 050/cf) (human) (UniProt P17948); experiment: competition ELISA, coated hVEGFR1-Fc, competitor biotin-hPLGF1 4 nM; control Ron antibody 1.6667 µg/ml
[21] = molecular target: hVEGFR1-Fc (R&D 321-fl 050/cf) (human) (UniProt P17948); experiment: competition ELISA, coated hVEGFR1-Fc, competitor biotin-hPLGF1 2 nM; control Ron antibody 0.206 µg/ml
[22] = molecular target: hVEGFR1-Fc (R&D 321-fl 050/cf) (human) (UniProt P17948); experiment: competition ELISA, coated hVEGFR1-Fc, competitor biotin-hPLGF1 4 nM; control Ron antibody 0.5556 µg/ml
[23] = molecular target: hVEGFR1-Fc (R&D 321-fl 050/cf) (human) (UniProt P17948); experiment: competition ELISA, coated hVEGFR1-Fc, competitor biotin-hPLGF1 4 nM; control Ron antibody 0.1852 µg/ml
[24] = molecular target: hVEGFR1-Fc (R&D 321-fl 050/cf) (human) (UniProt P17948); experiment: competition ELISA, coated hVEGFR1-Fc, competitor biotin-hVEGFA-165 2 nM; control Ron antibody 1.852 µg/ml

hVEGFR1-Fc (R&D 321-fl 050/cf) (human), sequence (P17948 27-758): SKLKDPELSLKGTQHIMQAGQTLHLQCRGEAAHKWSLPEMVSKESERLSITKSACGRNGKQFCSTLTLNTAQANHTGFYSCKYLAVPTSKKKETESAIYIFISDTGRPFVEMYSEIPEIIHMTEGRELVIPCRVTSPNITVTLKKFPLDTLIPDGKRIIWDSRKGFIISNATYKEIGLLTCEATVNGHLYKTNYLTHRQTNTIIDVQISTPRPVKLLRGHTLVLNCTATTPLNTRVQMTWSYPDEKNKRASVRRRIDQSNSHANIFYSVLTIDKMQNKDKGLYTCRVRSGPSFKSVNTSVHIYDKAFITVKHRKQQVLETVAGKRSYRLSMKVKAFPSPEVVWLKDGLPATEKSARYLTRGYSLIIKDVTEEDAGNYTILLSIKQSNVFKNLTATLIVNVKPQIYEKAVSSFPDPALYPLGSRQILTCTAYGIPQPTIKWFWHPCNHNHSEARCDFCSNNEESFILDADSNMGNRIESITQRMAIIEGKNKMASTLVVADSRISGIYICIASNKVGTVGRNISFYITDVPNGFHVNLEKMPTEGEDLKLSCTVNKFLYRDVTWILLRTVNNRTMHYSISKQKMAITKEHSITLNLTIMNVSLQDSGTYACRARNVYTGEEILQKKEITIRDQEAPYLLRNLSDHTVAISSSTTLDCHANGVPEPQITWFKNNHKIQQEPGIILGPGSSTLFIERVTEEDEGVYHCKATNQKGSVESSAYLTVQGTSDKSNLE

OD560 (bound biotinylated PlGF) [1]: 0.304 OD
OD560 (bound biotinylated PlGF) [2]: 0.339 OD
OD560 (bound biotinylated PlGF) [3]: 0.389 OD
OD560 (bound biotinylated PlGF) [4]: 0.295 OD
OD560 (bound biotinylated VEGF-A) [5]: 1.53 OD
OD560 (bound biotinylated PlGF) [6]: 0.359 OD
OD560 (bound biotinylated PlGF) [7]: 0.407 OD
OD560 (bound biotinylated VEGF-A) [8]: 0.566 OD
OD560 (bound biotinylated VEGF-A) [9]: 0.535 OD
OD560 (bound biotinylated VEGF-A) [10]: 1.51 OD
OD560 (bound biotinylated VEGF-A) [11]: 1.51 OD
OD560 (bound biotinylated VEGF-A) [12]: 1.62 OD
OD560 (bound biotinylated VEGF-A) [13]: 1.46 OD
OD560 (bound biotinylated VEGF-A) [14]: 0.506 OD
OD560 (bound biotinylated VEGF-A) [15]: 0.554 OD
OD560 (bound biotinylated VEGF-A) [16]: 0.519 OD
OD560 (bound biotinylated PlGF) [17]: 0.296 OD
OD560 (bound biotinylated VEGF-A) [18]: 0.515 OD
OD560 (bound biotinylated PlGF) [19]: 0.408 OD
OD560 (bound biotinylated PlGF) [20]: 0.432 OD
OD560 (bound biotinylated PlGF) [21]: 0.315 OD
OD560 (bound biotinylated PlGF) [22]: 0.436 OD
OD560 (bound biotinylated PlGF) [23]: 0.405 OD
OD560 (bound biotinylated VEGF-A) [24]: 0.53 OD
Substance: control Ron antibody (R&D MAB691)
